Data published in the supplement of paper PMC7125110.
± gives the standard error. This sample holds only a part of the variants without activity.

B1: glmS ribozyme (parent)
chain: AUAAAAGCGCCAGAACUACAGAAAUGUAGUUGACGAGGAGGAGGUUUAUCGAAUUUUCGGCGGAUGCCUCCAAA

How the values were obtained:
Conditions in all cases: with glucosamine-6-phosphate
[1] = variants of: B1; assay: self-cleavage kobs at 160 uM GlcN6P; higher = faster cleavage; RNA array
In short: (§1)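 Weighted Michaelis–Menten fits across concentrations supplied kcat and KM, based on kobs from one- or two-exponential decay fits to normalised per-tile medians. The data came from barcoded ribozyme variants transcribed in situ by E. coli RNA polymerase on sequenced MiSeq chips and tracked at 37 °C by a hybridised Cy3 probe. Glucosamine-6-phosphate (40 μM to 10 mM) in HEPES/KCl/Mg(OAc)2 buffer was flowed in.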

[2] = variants of: B1; assay: self-cleavage kobs at 640 uM GlcN6P; higher = faster cleavage; RNA array
In short: as §1

[3] = variants of: B1; assay: self-cleavage kobs at 2500 uM GlcN6P; higher = faster cleavage; RNA array
In short: as §1

[4] = variants of: B1; assay: self-cleavage kobs at 10000 uM GlcN6P; higher = faster cleavage; RNA array
In short: as §1

Variant | self-cleavage kobs at 160 uM GlcN6P [1] [s⁻¹] | self-cleavage kobs at 640 uM GlcN6P [2] [s⁻¹] | self-cleavage kobs at 2500 uM GlcN6P [3] [s⁻¹] | self-cleavage kobs at 10000 uM GlcN6P [4] [s⁻¹]
A12C A39G C70U | 0.000758 ± 0.00028 |  |  | 
U49A A52U | < 1e-05 | < 1e-05 | < 1e-05 | < 1e-05
G9A A36G C67U | < 1e-05 |  |  | 
A6U U45C | < 1e-05 | < 1e-05 |  | 
A20U U56C | 0.000306 ± 8.2e-05 |  | 0.0029 ± 0.00075 | 
A39C C50A A52U | < 1e-05 | < 1e-05 |  | 
A39G G43A A48U G51C | < 1e-05 | < 1e-05 | < 1e-05 | 
C10A C34U U55G | < 1e-05 |  | < 1e-05 | 
U31G G35A | < 1e-05 | < 1e-05 |  | < 1e-05
C8G A14G C34G | < 1e-05 | < 1e-05 | < 1e-05 | 
A36C G38C G63A | < 1e-05 |  |  | 
A42U A52G C68G | < 1e-05 |  | < 1e-05 | 
G13U G38U U65G | < 1e-05 |  |  | 
A39U U47G A52U G60U G63U | < 1e-05 |  |  | 
A15G C16U A33U A39G | < 1e-05 |  |  | 
C58U C68A C71G | 8.62e-05 ± 2.6e-05 | 4.72e-05 ± 2.2e-05 |  | 

Variant | self-cleavage kobs at 160 uM GlcN6P [1] [s⁻¹] | self-cleavage kobs at 640 uM GlcN6P [2] [s⁻¹] | self-cleavage kobs at 2500 uM GlcN6P [3] [s⁻¹] | self-cleavage kobs at 10000 uM GlcN6P [4] [s⁻¹]
A6G G38C U49A | < 1e-05 | < 1e-05 |  | 
A14U C16A A33C | < 1e-05 | < 1e-05 |  | 
A12G G40U A53G C67U | < 1e-05 | < 1e-05 |  | 
C10G A42G G44C A53G G60U | < 1e-05 | < 1e-05 |  | 
A39U G44C A64U | < 1e-05 | < 1e-05 |  | 
A14C G51A C58A C68G | 6.87e-05 ± 1.6e-05 | 8.48e-05 ± 2.9e-05 | 8.83e-05 ± 2.5e-05 | 
U55G U56G U69C | 0.000134 ± 3.4e-05 | 0.000115 ± 2.6e-05 | 0.000201 ± 4.3e-05 | 
C10A C16A U47C U65C | < 1e-05 | < 1e-05 |  | 
C8A A42U U45G | < 1e-05 | < 1e-05 | < 1e-05 | 
A15C G38C C70G | < 1e-05 |  |  | 
G37C G60U C70U | < 1e-05 |  |  | 
G41A U47A G62C | < 1e-05 | < 1e-05 | < 1e-05 | 
G7U C16U | < 1e-05 |  |  | 
A33C G40U G44C U45A G62U | < 1e-05 |  |  | 
G35C G40C U47A G62U | < 1e-05 | < 1e-05 |  | 
